Here are results for 41 sequences from the nanobody polyreactivity screen of Harvey et al. (2022).

This data set in a line: yeast display, Sf9 membrane polyspecificity reagent, FACS + sequencing; frameworks hold sequencing errors. The gist of the method: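 Using colony PCR, genes from sorted yeast display clones were amplified, then sequenced on MiSeq at 2 × 250 and filtered by CDR length. The clones had been stained with 10% biotinylated, detergent-solubilized Sf9 membrane reagent for 1 hour at 4 °C and sorted by FACS into low and high (top ~1%) gates on anti-HA and streptavidin fluorescence. Polyreactivity labels come from the gate of origin.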
Regarding “PVQLVVSGGGLVQAGGSLRLRGAASGSSFSQNAMGWSRPAPGKDRELVAAITSGGITYYADSVKGRFTISRDNAKNTVYLQMNSLKPEDTAVYDCAADYWPSGRGVAFDYWGQGTQVTVSS”, the “polyreactivity (PSR sort gate)” value is “low polyreactivity”.
To “PVQRVESGGGLVQAGGSLRLSCAASGRTFDSYAMGWYRQAPGKERELVAAISSRGTRTYYADSVKGRFTSSRDNAKNPVYLQINSLQPEDTAGYYCNAGGAYEYDYWGQGSQVTVSS” belongs “high polyreactivity”; to “QAQLQESAGSLVQAGGGLRLSCAASGYISVGSVKGWYRQAPSKERELVASIDQGANTNYADSVKGRFTISRDNAKNNVYLQMNSLIPEDTAVYYCATETTYILNYWGQGTQVTVSS”, “low polyreactivity”; to “QAQLQESGGGLVQAGGSLPRSCAPSGSIFRFSGMGWYRRAPGKERELVASIGFGSITYYEDRVKGRFTISRDNANNTVYLQMNSLKPEDTAVYYCAVQVQDDSWLDYWGQGTQVTVSC”, “low polyreactivity”.
Then “QAQLQESRGSVVQAGLGLRLSCAASGYISVGSVMGWYRQAPSKERELVASIDQGANTNYADSVKGRFTISRDNAKNNVYLQMISLKPEDTEVYYCATETTYILNYWGQGSQVTVSS”, with “low polyreactivity”; and “QAQLVESGGGLVQAGGSLRLSCAASGSIFVAYDKGWYREAPWKERELVAAINFDGTSTYYADSVKGRFTISRDNAKNTVYLQMNSLKPEDTAVYYCNKRVSPTFTGQYDYWGQGTQVTVSS”, with “low polyreactivity”.
Then “QCQLVESGGGLVQAGGSLLLSCAASGFIFNRNAMGWSRQAPGKEREFVSAISTLGAGTYYADSVKGRFTISRDNAKNTVYLQMNSLKPEDTAVYYCAADIFRYGYYNRYSKVGYDYWGQGTQVTVSS”, with “high polyreactivity”; and “QDHLVESGGGLVQAGGSLRLSCAASGFLFSQNVMGWYRQAPGKERELVAAISSGSRTYYADSVKGRFTISRDNAKNTVYLQMISLKPEDTAVYYCATDARVGGYVSEGDYWGLGTQVTVSS”, with “low polyreactivity”; and “QDHLVESGGGLVQAGGSLRLSCAASGISFSVNAMGWSRQAPGKERELVASISSGGSTNYADSVTGRFTISRDNAKNTVYLQMNSLNPEDTAVSYCAAGYWNDFDWGQGTQVTVSS”, with “low polyreactivity”.
With “QDHLVESGGGLVQAGGSLRLSCAASGSTFGWYAMGWYRHAPGKERELVAVITRGGSTYYADSVKGHFTITLDNAKNTVYLQMNSLKPEDTAVYFCAARYRLPPYYYWGHGTQVTVSS”, the “polyreactivity (PSR sort gate)” value was “high polyreactivity”.
Consider “QDHLVESGGGLVQAGGSLRLSCAASRRTLLRYAMGWYRQAPGKERELVAAISSSGGRTYYADSVKGRFTISRDNAKNTVYLQMNSLKPEDTAVYYCAAKSSYVGHDYWGQGTQVTVSS”, for which the “polyreactivity (PSR sort gate)” value is listed as “high polyreactivity”.
For “QDHLVESGGGLVQAGGSLRLSCSASGSNFRSYAMGWYRQAPGKERELVAAITWSGGRTYYADSVKGRFTISRDNAKNTVYLQMNSLKPEDTAVYYCNAVYLAYGGAYWGQGTQVTVSS”, the “polyreactivity (PSR sort gate)” value is listed as “high polyreactivity”.
On to “QDHLVESGGGLVQAGGSLRLTCAASGSIFADYTMGWYRQATGKEMELVAAINNRDGGTYYADSVKGRFTISRDNAKNTVYLEMNSLKPEDTAVYYCTKQVDLSGQWDFWYGYYTYDYWGQGTQLTVSS”, for which the “polyreactivity (PSR sort gate)” value was “low polyreactivity”.
Then “QDHLVESGGGLVQAGGSLRVSCAASGLVYGQYAMGWYRPAPGKERELVAAINWSGGRTYYADSVKGRFTISRDNAKNTVYLQMNSLKPEDTAVYYCAADDPQDQDYENNYWGQGTQVNVSS”, with “high polyreactivity”.
Then “QDKLVESGGGLVQAGGSLRLICAASGFTFNRYALGWYRKAPGKERELVAGITGGGSTKYADSVKGRFTISRDNAKNTVYLQMNSLKPEDTSVYYCNASGYSYGARYYYWGQGTQVTVSS”, with “high polyreactivity”.
To “QDLLVESGAGLVQAGGSVRLSCAASGRIVYTYAMAWYRQAPGIERELVAVISSGGSTYYADSVKGRFTNSRDNAKNTVYLQMNSLTPEDTAVYYCAAYGTKWGRGFYITGYGYWGQGTQVTVSS” belongs “low polyreactivity”; to “QDLLVESGGGLVQAGGSLRLSCAASGYTFGNNAMGWYRQAPGKERELVATISGGGRTKYADSVKGRFTISRDNAKNTVYLQMYSLKPEDTAVYYCNVVQTYYRGSYIYIKYGYWGQGTQVTVSS”, “high polyreactivity”.
For “QDQHVESAGGVVQTGGSLRLSGAATGSIFGEYAMGWYRQPPGQEREFVADITRSDGSTYYADSVKGRFTISRDHAKNTVYFQMNSMKPEYTAVYYCAADSVLDRPVLYLGPWYLGDYWGQGTLVTVSS”, the “polyreactivity (PSR sort gate)” value is reported as “low polyreactivity”.
Take “QDQHVESGGGLDQAGGSLRLSCAASGRTIRSYAMGGYRPAPRKESELVAAISSRGGNTYYADSVKGRFTISRDNAKYTVYLQMNSLKPEDTAVYYSNRVRYGVPLIVGDDYWGQGTQVTVSS”: the “polyreactivity (PSR sort gate)” value was “high polyreactivity”.
On to “QDQHVESGGGLVQAGCSLRLSCAASGSIFSWNAMGWYRQAPGKERELVAAIRWDTGSTYYADSVKVRFTISRDKAKNTVYLQMNRLKPEDTAVYYCAADLFDCQLIDGFAVVTYGYWGQGTQVTVSS”, for which the “polyreactivity (PSR sort gate)” value is “low polyreactivity”.
“QDQHVESGGGLVQAGGRLRLICAASGGNFTKNAMGWYRQAPGKERELVAGISRTGGNTYYADSVKGRFTISRDNAKNTVYLQMNSLKPDDTAVYYCNALYGGPHRLRYDYWGQGTQVTVSS”: the “polyreactivity (PSR sort gate)” value is on record as “low polyreactivity”.
In the case of “QDQHVESGGGLVQAGGSLRLICAASGSIFIANAMGWYRQAPGKERELVAAITLNGGSTYYADSVKGRFTISRDNAKNTVYLQMNSLKPEDTAVYYCAADWVWVAPQYWFVEYDYWGQGTQVTVSS”, the “polyreactivity (PSR sort gate)” value is on record as “low polyreactivity”.
In the case of “QDQHVESGGGLVQAGGSLRLSCAAPGITFYPYDMGWYRQAPGKERELVASISRSGGSTYYADSVKGRFTISRDNAKNTVYLQMNSLKPEDTAVYYCNAYSTRGMYSWGQGTQVTVSS”, the “polyreactivity (PSR sort gate)” value is given as “high polyreactivity”.
Then “QDQHVESGGGLVQAGGSLRLSCAASGFTFSDYALGWYRQAPGKERELVAAISTRGSSTYYADSVKGRFTISRDNAKNTVYLHLNSLKQDYTAVSYCNAVGSYSGYYYWGQGTHVTVSS”, with “high polyreactivity”.
To “QDQHVESGGGLVQAGGSLRLSCAASGRIFFHNAMGWSRQAPGKERELVAAIRSSTGSTYYADSVKGRFTISRDNAKNTVYLQMNSLKPEDTAVYYCARYAYANAYYGKSYWMGYWGQGTQVTVSS” belongs “high polyreactivity”.
Then “QDQHVESGGGLVQAGGSLRLSCAASGSTFPTNAMGWYRQAPGKERELVADITIRGGGTSYADSVKGRFTISRDNAKNTVYLQMNSLKPEDTEVYYCARSKSTELKRLLYDSWGQGTQVTVSS”, with “low polyreactivity”.
Turning to “QDQHVESGGGLVQAGGSLRLSCAATGNIFRYYTMGWYRQAPRKERELVAAISWNGGSTYYADSVKGRFTISRDNAKNTVYLQMNSLKPEDTAVYYCNAVQYYEFDYWGQGTQVTVSS”, the “polyreactivity (PSR sort gate)” value is “low polyreactivity”.
In the case of “QDQHVESGGGLVQAGGSLRLSCDASGRTFRKNAMGSYRQARGKERELVAAISWSGDSTYYADSVKGRFTISRDNAKNTVYLQMNSLKPEDSAVYYCAADSRYHFYYWRQGTQVTVSS”, the “polyreactivity (PSR sort gate)” value was “high polyreactivity”.
To “QDQHVESGGGLVQAGGSLRLSIAASASTIGFNAMGWYRQAPGKERELVAAITFSGGTTYYADSVKGRFTISRDNAKNTVYFQMNSLKPEDTAVYYCNADWWYQYSGPFAPWGEDYWGQGTQVTVSS” belongs “low polyreactivity”; to “QDQHVESVGGLVQAGGRLRLSSAASGLIFFDSPMVSDRQAPGKERELVAAISTTGGSTYYADSVKGRCTISRDNAKNSVYLEMNSLKPEDTAVYYCNARFVHHSWGTNYYWGQGTQVTVSS”, “high polyreactivity”; to “QDQHVESVGGLVQAGGSLRLSCAASGRTFAWNAMGWYRQAPGKERELVAVITSGGSTNYADSVKGRFTISRDNAKNTVYLQMKSLKPEDTALYYCAAGHSWVYGYDYWGQGTQVTVSS”, “low polyreactivity”.
For “QDQLEDSGGGLVQAGGSLRLICAASGSIFDTYAMGWYRQAPGKERELVATISWSGDSTYYADSVKGRFTISRDNAKNTVYLQLNSLKPEDTAVYYCAATTDALVGRPRYDYWGQGTQVTVSS”, the “polyreactivity (PSR sort gate)” value is “low polyreactivity”.
To “QDQLGESGGGLVQAGGSLRLSCAASGRSFTYYTMGWYRQAPGKERELVATINNSGGSTYYADSVKGRFTISRDNAKNTVYLQMNSLKPEDTAVYYCAKVLGLPYGAPRSIFVEWEMDYWGQGTQVTVSS” belongs “low polyreactivity”.
To “QDQLLESGGGLVQAGGSLRISCAASGRTIIRNAMGWSRQAPGKERELVAAITSGGSTNYADSVKGRFTISRDNAKNTVYLQMNSLKPEDTAVYYCAARYGSQYKHRFYYWGQGTQVTVSS” belongs “high polyreactivity”; to “QDQLQESGGGLVQAGGSLRLSCAASGRIIYGYAMGWYRQAPGKERELVAAITATYYADSVKGRFTISRDNAKNTVYLQMNSLKPEDTAVYYCNAYLSPKQPLSPPDPTFEGGYWGQGTQVTVSS”, “low polyreactivity”; to “QDQLVDSGGGLVQAGGSLRLSCAASGIIFYRYAMGWYRQAPGKERELVATITASGGRTYYADSVKGRFTISRDNAKNTVYLQMNSLKPEDTAVYYCAAVSSYRLYSDYGYWRQGTQVTVSS”, “high polyreactivity”.
Then “QDQLVDSGGGLVQAGGSLRLSCAASGLSFDLYDMGWYRQAPGKERELVAAIDWSATRTYYADSVKGRFTISRDNAKNTVYLQMNSLKPEDPAVYYCNAEAVYEYWIYDYWGQGTQVTLSS”, with “high polyreactivity”.
On to “QDQLVDSGGGLVQAGGSLRLSSAASGFSYGGYAMGWYRQAPGKERELVAAISSGGGTTYADSVKGRFTISRDNAKYTVYLQMNSLKPEDTAVYYCAAVTRDYRNDRRRQRCYYWGQGTQVTVSS”, for which the “polyreactivity (PSR sort gate)” value is on record as “high polyreactivity”.
For “QDQLVEAGGGLVQAGGSLRLSCAASGFTFYPYAMGWYRQAPGKERELVAAISYSGDRTYYADSVKGRFTISRDNAKNTVYLQMNSLKPEDTAVYDCVSAVHPGKYYYWGQGTQVTESS”, the “polyreactivity (PSR sort gate)” value is on record as “high polyreactivity”.
In the case of “QDQLVESAGGLVQAGGSLRLSCAASGRIFSRYAMGWYRQAPGKERELVAAITQSGTSTYYADSVKGRFTISRDIAKNTVYLQMNSLKAEDTAVYYCNAYSQYRYDYWGQGTQVTVSS”, the “polyreactivity (PSR sort gate)” value is listed as “low polyreactivity”.
Then “QDQLVESAGGLVQAGGSLRLSCAASGSIFTSNAMGWYRQAPGKETELVAAITSSGGSTYYADSVKGRFTISRDNAKNTVYVQMNSLKPEVTAVYYCAGAKFDLSFWLYYWGQGTQVTVSS”, with “low polyreactivity”.
